Data on 22 sequences can be found in the DeepSol protein solubility set.

A short description of the series: soluble on expression in E. coli; label from the status in PepcDB or PDB records.
For the sequence “MDANEKKEVIKKRFQEIAMSGGTCCSGGGCCGDSSSSDISRAIGYSEADIEAVPDANMGLGCGNPASIAELKPGDIVLDLGSGAGFDCFLAAQKVGNSGKVIGVDMTPEMVEKVQANARKYGYSNVEFRQGDIEALPVEDSSVDVIISNCVINLAPDKEKVFREAFRVLKLGGRLYISDLVLLDELPEDLKNDRDLLAGCVAGAVLKEEYLKLLKRAGFSVEILAEDPDISKSQYKGLPVESLKLKAWVLEHHHHHH”, the “soluble on expression in E. coli” value is listed as “soluble”.

With “MDAVQDPAAGSLSRSRIVPPQVPAEYSLRPAIRNLLDRNPHSRVLMFSAPAGFGKTCALAALARERTVADQAVAWLSLAEEDDDPARFCRQLIEALGEAVPQLGDDAQTYLQNTMRVPVVAVIESLLGDLDRYARPLLLVLDDLHLVSNPDIFTGLNRLVQYAPPGLVLALGTRSQPALSLATWRAKGLLLEIGLEELRLGFEETREYLERSGLYLDEPCLKALYGQTEGWVVGVHLVSLWLRQQPQVQEMALLDGDKQAVSAYLLAAVFERLPGDLQEALLALGVASQLSGDLANALTGRQ”, the “soluble on expression in E. coli” value was “not soluble”.

As to “MDCQIGSRRCATWDEIEDAPQTKRLREDKVQENVPQQSVQPAPPPPAAQQAPAPAEQPKFYISAPIQGFTVNNQGGCRYLFF”, the “soluble on expression in E. coli” value is “not soluble”.

On to “MDDSTLRRKYPHHEWHAVNEGDSGAFVYQLTGGPEPQPELYAKIAPRAPENSAFDLSGEADRLEWLHRHGIPVPRVVERGADDTAAWLVTEAVPGVAAAEEWPEHQRFAVVEAMAELARALHELPVEDCPFDRRLDAAVAEARRNVAEGLVDLDDLQEERAGWTGDQLLAELDRTRPEKEDLVVCHGDLCPNNVLLDPGTCRVTGVIDVGRLGVADRHADIALAARELEIDEDPWFGPAYAERFLERYGAHRVDKEKLAFYQLLDEFF”, for which the “soluble on expression in E. coli” value is “not soluble”.

In the case of “MDDVLRRNPLFAALDDEQSAELRASMSEVTLARGDTLFHEGDPGDRLYVVTEGKVKLHRTSPDGRENMLAVVGPSELIGELSLFDPGPRTATGTALTEVKLLALGHGDLQPWLNVRPEVATALLRAVARRLRKTNDAMSDLVFSD”, the “soluble on expression in E. coli” value is given as “soluble”.

As for “MDDYVPIPFTLLKLPQKSIDVVLRRMCIEALVELSFTSKAAMQQTKHLGIKTERFIIAINSNEILIDVSGCRDFRFYTFECSTPSHHTVQKPIRVHVGFRGERWETPFFGVRQFLNHLMEIFHQTKLDSLHISTADPECSNELKGMEFGWLSMMSMTSDNNSSQDEDALRQFSGKTDSICLNRNPFSIEPSKQMQMILTRNMNVVSTKCDLNDVFVTNARSFTAFLKIEDVNIFLKHWMHRSDRKLKSAWFDLDAFRWDVEDVLEPLFKGIAYHVAPADREFIVHLPKKLSGCGDYRVIGGYDVRRNDGMTATIIVADRANVFLKMFFWI”, the “soluble on expression in E. coli” value is reported as “not soluble”.

In the case of “MDEDIICVGCGAILQSDDPKKAGYLPKSALDKAKREENTDVYCQRCFRLRHYNEIMPVDLNNDDFLALLNSLSEKKALVVNVVDLFDFSNSLLSSLKRFVGNNDFILVGNKFDLFPKNSKQSKIKDWMRQEANRMGLYPKDIFLVSAKKKVNLESLISYINDHSQDKDVYFVGTTNVGKSTLINAIIDMMGDIQDLITTSRFPGTTLDQIEIPLENGHFLIDTPGIMTDNQLATHLNAKDLELVSPKKPLKPATYQLLPGNTLFLAGLGRIDFLKGESTSFTVYVARDMYVHRTKTANADAFYEKHKGELLTPPSADDQMAPLKGKEFRTDYKSDLLFGGIGFVTVPKGCVVKTYTPDGIGLGIRRALILEHHHHHH”, the “soluble on expression in E. coli” value was “soluble”.

For the sequence “MDEGDKKSPISQVHEIGIKRNMTVHFKVLREEGPAHMKNFITACIVGSIVTEGEGNGKKVSKKRAAEKMLVELQKL”, the “soluble on expression in E. coli” value is “soluble”.

Regarding “MDELMFFRGMAPDPTSYDRVFKFLIFGGKSVGKKTLLRSFCTEGDNESIWTSLTVDDEKVLIEATVSQKWEEGMSKEHDAIALVFSTTDVYSFEYTLELYNEIQKSTERIPLVFIENKIDIVEDSQMDKGLVEGEMRKKHKRLYRVSALKEFNVMHPFAYLIEKLTRQKKDLNANESVSENSLRL”, the “soluble on expression in E. coli” value is “not soluble”.

As for “MDERDALRISREIAGEVRKAIASMPLRERVKDVGMGKDGTPTKAADRVAEDAALEILRKERVTVVTEESGVLGEGDVFVALDPLDGTFNATRGIPVYSVSLCFSYSDKLKDAFFGYVYNLATGDEYYADSSGAYRNGERIEVSDAEELYCNAIIYYPDRKFPFKRMRIFGSAATELCFFADGSFDCFLDIRPGKMLRIYDAAAGVFIAEKAGGKVTELDGESLGNKKFDMQERLNIVAANEKLHPKLLELIK”, the “soluble on expression in E. coli” value is recorded as “soluble”.

Consider “MDERPVLFFDSGIGGLTVLREVRSLIPEKQFIYVADDVGFPYGNWEENVLKNRILKIFTNLLTVYNPALCVIACNTVSTLMIADLRERFPHILFVGTVPAIKLAAEQTKSGFISVLATPGTVKRTYTHELINSFAGQCHVQLVGSEKLAGFAENYLRGQSVDLEELRNEILPCFVKKNGKHTDIIVLACTHYPFLLHFFREQALWHVQWIDPSKAIAKRTRSLLPQRIHHQTVKKYEDFALFTSQNITSSTKRLLKEFSLNITKGVDFKV”, for which the “soluble on expression in E. coli” value was “not soluble”.

With “MDFHIRKATNSDAEAIQHVATTSWHHTYQDLIPSDVQDDFLKRFYNVETLHNRISATPFAVLEQADKVIGFANFIELEKGKSELAAFYLLPEVTQRGLGTELLEVGMTLFHVPLPMFVNVEKGNETAIHFYKAKGFVQVEEFTEDFYGYPLETIRFNLNHHAFEEE”, the “soluble on expression in E. coli” value is given as “not soluble”.

On to “MDFKQHIAIVPDYPKEGIVFKDITPLMNDGKAYKAATDAIVEYAKERDIDLVVGPEARGFIIGCPVSYALEVGFAPVRKLGKLPREVITVDYGKEYGKDVLTIHKDAIKPGQRVLITDDLLATGGTIEATIKLVEELGGVVAGIAFLVELTYLDGRKMLDGYDVLVLEKY”, for which the “soluble on expression in E. coli” value is “not soluble”.

Turning to “MDFVHCNKCFNRKPPDGFFISSCFHIFCTKCAKADLAVCLICKKNVRLVRLDGNISSGIKIYFADPIKMVADSLAKIQKKIDFQQSTRDHLVKYLTKEKEKKRQMEVYFRTKGQEFDSQRKKLAEATAWIQMAEKKLQASEEERVKAEREIEECQAKLKSMTNLMSADTLGMNSQTPFPFSLAESQETAPSLVESSANSTFNMVSPLVSSPASSPNSINYNSFFENGSRTRPESLNEEAMFNTMSSGQSANANTSESSAFSVAFNNIFTPSRNNMGDSSMINKTTANQTIMDKTSMSLENWRQNRANSFGVHDISKRDSSLPTGGGSAIRVHHFKQNSRITPIAQNRRSAAGFDRQQIQEMRRISSQPGYLAQRKPINGRSFIGPAD”, the “soluble on expression in E. coli” value is on record as “not soluble”.

Turning to “MDGYEEYTVLKEWEKTHKNEEIYSIRFGGNYMIDMKDGIKLSTDVYLPDFVDSAKKAPTILMRTPYGKENDKEIYYKYVQRGYAVVIQDVRGRNESEGKWEPMIHEREDGDSTINWIVSQEWSSGIVGMLGASYLGYVQWAAASSGNKHLKALVSIVTSGSPFIDIPRKGGAFVSGMLAWAFMVSRNKVDRSKMVRDDWDDVLNIRPIENIPVEALGYRIEFLEEWLKRVEKDEYWDLMDWHLQKDKINVPALVVSGWYDDNSMGTTEALDVIKDYEKGKRKAILGPWMHNSNTLRDINGISLGNSSLRYDLDYNYLLWFDKYLKGIENNIDTTAPVEYYSVGSNKWKTEE”, the “soluble on expression in E. coli” value is listed as “not soluble”.

Regarding “MDHEIPVRIVDNQEYMKVVRSILEEGKEVPLVVTGNSMMPFLIDRRDQVLIKRIERPLKKGDIAFFQRENGQYIMHRIHFMRKDDRTGENQFYFIGDGQKNIEGPIKETRIFGVITGVLRKGKYLDEHTFTWRFFENIWRYVIPFRPLIIKIYSLFKR”, the “soluble on expression in E. coli” value was “not soluble”.

For the sequence “MDHHHHHHHHMPRTTGMNVAVVGGGISGLAVAHHLRSRGTDAVLLESSARLGGAVGTHALAGYLVEQGPNSFLDREPATRALAAALNLEGRIRAADPAAKRRYVYTRGRLRSVPASPPAFLASDILPLGARLRVAGELFSRRAPEGVDESLAAFGRRHLGHRATQVLLDAVQTGIYAGDVEQLSVAATFPMLVKMEREHRSLILGAIRAQKAQRQAALPAGTAPKLSGALSTFDGGLQVLIDALAASLGDAAHVGARVEGLAREDGGWRLIIEEHGRRAELSVAQVVLAAPAHATAKLLRPLDDALAALVAGIAYAPIAVVHLGFDAGTLPAPDGFGFLVPAEEQRRMLGAIHASTTFPFRAEGGRVLYSCMVGGARQPGLVEQDEDALAALAREELKALAGVTARPSFTRVFRWPLGIPQYNLGHLERVAAIDAALQRLPGLHLIGNAYKGVGLNDCIRNAAQLADALVAGNTSHAP”, the “soluble on expression in E. coli” value is “soluble”.

On to “MDIGDHGTHCAGIIAGFGPNVKIASLKHLSGNKFKDLDNWVSTMIKAINYADAMDIKIVNVSLGLHKSQIGDRPFDSQALNDAISNADLLFVTAAGNFNKNIDLPDDVIYPASCTAENIITVANTDKDDKLYESSNYGVISVDLAAPGTDIRSTIPTHLAGEGGPYDIKTGTSMSAPHVAGAAALLLSSNPSLTTQQLKDLILSSVDFLPDLQGKVATSGRLNVAKALRKIRTSVKIGDIDGNGEISSIDYAILKSHLINSNLTFKQLAAADVDGNGYVNSIDLAILQMYLLGKGGTSDIGKNRIYTYGDIDNNGIVDENDYILICNHINGTGQLSDASLFAADADGNNVIDQTDRILIEKYITGRITHLPVGNQ”, for which the “soluble on expression in E. coli” value is listed as “not soluble”.

“MDIGDNSKFDSATDLPVEQEQEQETEQEGEPEESSEQDLVEEVDWKDIPVPADAGPNMKWEFQEISDNFEYEAPADNKGSEFLEKWDDFYHNAWAGPGLTEWKRDRSYVADGELKMWATRKPGSDKINMGCITSKTRVVYPVYIEARAKVMNSTLASDVWLLSADDTQEIDILEAYGADYSESAGKDHSYFSKKVHISHHVFIRDPFQDYQPKDAGSWFEDGTVWNKEFHRFGVYWRDPWHLEYYIDGVLVRTVSGKDIIDPKHFTNTTDPGNTEIDTRTGLNKEMDIIINTEDQTWRSSPASGLQSNTYTPTDNELSNIENNTFGVDWIRIYKPVEKLEHHHHHH”: the “soluble on expression in E. coli” value is “soluble”.

Consider “MDIISVALKRHSTKAFDASKKLTPEQAEQIKTLLQYSPSSTNSQPWHFIVASTEEGKARVAKSAAGNYVFNERKMLDASHVVVFCAKTAMDDVWLKLVVDQEDADGRFATPEAKAANDKGRKFFADMHRKDLHDDAEWMAKQVYLNVGNFLLGVAALGLDAVPIEGFDAAILDAEFGLKEKGYTSLVVVPVGHHSVEDFNATLPKSRLPQNITLTEV”, for which the “soluble on expression in E. coli” value is “soluble”.

As to “MDIKNSPSSLNSPSSYNCSQSILPLEHGSIYIPSSYVDSHHEYPAMTFYSPAVMNYSIPSNVTNLEGGPGRQTTSPNVLWPTPGHLSPLVVHRQLSHLYAEPQKSPWCEARSLEHTLPVNRETLKRKVSGNRCASPVTGPGSKRDAHFCAVCSDYASGYHYGVWSCEGCKAFFKRSIQGHNDYICPATNQCTIDKNRRKSCQACRLRKCYEVGMVKCGSRRERCGYRLVRRQRSADEQLHCAGKAKRSGGHAPRVRELLLDALSPEQLVLTLLEAEPPHVLISRPSAPFTEASMMMSLTKLADKELVHMISWAKKIPGFVELSLFDQVRLLESCWMEVLMMGLMWRSIDHPGKLIFAPDLVLDRDEGKCVEGILEIFDMLLATTSRFRELKLQHKEYLCVKAMILLNSSMYPLVTATQDADSSRKLAHLLNAVTDALVWVIAKSGISSQQQSMRLANLLMLLSHVRHASNKGMEHLLNMKCKNVVPVYDLLLEMLNAHVLRGCKSSITGSECSPAEDSKSKEGSQNPQSQ”, the “soluble on expression in E. coli” value is on record as “soluble”.

On to “MDISSTEIWDAIRRNSYLLYYQPKVDAKTNKIIGFEGLVRLKTATTILAPIDFFDDIVLLNATREMQDFVAETAIKQINQLGGRFSISINIPAHYVASSTYMTFLHDYVKEHLKYPECLEIEIIERGEITELAIADKNLRKIKDLGVKVSMDDFGKGYSSLAYLRSLPIDIVKTDMSFIALLKTDRKQQIIIRAIVNLCHDLGGKVVTEGVEDMEQVEKLREMKVDYFQGYYFSRPLPMEEIKQKYSIV”, for which the “soluble on expression in E. coli” value is given as “soluble”.
